{
  "source": "paper PMC5690536",
  "biological_target": "GST-CD11a αI-domain",
  "test": "radioligand binding",
  "data": [
    {"substance": "32P-labeled pkISG15 (from UniProt P05161 1-157) (natural protein)", "values": [
      {"measurement": "Kd", "value": 656, "unit": "nM"}
    ]}
  ]
}
